# According to the DeepSol protein solubility set:
# Assay: soluble on expression in E. coli; label from the status in PepcDB or PDB records
row,Sequence,soluble on expression in E. coli
1,MALVFVYGTLKRGQPNHRVLRDGAHGSAAFRARGRTLEPYPLVIAGEHNIPWLLHLPGSGRLVEGEVYAVDERMLRFLDDFESCPALYQRTVLRVQLLEDRAPGAEEPPAPTAVQCFVYSRATFPPEWAQLPHHDSYDSEGPHGLRYNPRENR,soluble
2,MALVKIVRIETFPLFHRLEKPYGDANGFKRYRTCYLIRIITESGIDGWGECVDWLPALHVGFTKRIIPFLLGKQAGSRLSLVRTIQKWHQRAASAVSMALTEIAAKAADCSVCELWGGRYREEIPVYASFQSYSDSPQWISRSVSNVEAQLKKGFEQIKVKIGGTSFKEDVRHINALQHTAGSSITMILDANQSYDAAAAFKWERYFSEWTNIGWLEEPLPFDQPQDYAMLRSRLSVPVAGGENMKGPAQYVPLLSQRCLDIIQPDVMHVNGIDEFRDCLQLARYFGVRASAHAYDGSLSRLYALFAQACLPPWSKMKNDHIEPIEWDVMENPFTDLVSLQPSKGMVHIPKGKGIGTEINMEIVNRYKWDGSAYEGHHHHHH,soluble
3,MAMAKARKPREALLWALSDLEENDFKKLKFYLRDMTLSEGQPPLARGELEGLIPVDLAELLISKYGEKEAVKVVLKGLKVMNLLELVDQLSHICLHDYREVYREHVRCLEEWQEAGVNGRYNQVLLVAKPSSESPESLACPFPEQELESVTVEALFDSGEKPSLAPSLVVLQGSAGTGKTTLARKMVLDWATGTLYPGRFDYVFYVSCKEVVLLLESKLEQLLFWCCGDNQAPVTEILRQPERLLFILDGFDELQRPFEEKLKKRGLSPKESLLHLLIRRHTLPTCSLLITTRPLALRNLEPLLKQARHVHILGFSEEERARYFSSYFTDEKQADRAFDIVQKNDILYKACQVPGICWVVCSWLQGQMERGKVVLETPRNSTDIFMAYVSTFLPPDDDGGCSELSRHRVLRSLCSLAAEGIQHQRFLFEEAELRKHNLDGPRLAAFLSSNDYQLGLAIKKFYSFRHISFQDFFHAMSYLVKEDQSRLGKESRREVQRLLEVKEQEGNDEMTLTMQFLLDISKKDSFSNLELKFCFRISPCLAQDLKHFKEQMESMKHNRTWDLEFSLYEAKIKNLVKVKFLKGKSEERMKETLP,soluble
4,MAMAVSGAVLSGLGSSFLTGGKRGATALASGVGTGAQRVGRKTLIVAAAAAQPKKSWIPAVKGGGNFLDPEWLDGSLPGDFGFDPLGLGKDPAFLKWYREAELIHGRWAMAAVLGIFVGQAWSGVAWFEAGAQPDAIAPFSFGSLLGTQLLLMGWVESKRWVDFFNPDSQSVEWATPWSKTAENFANYTGDQGYPGGRFFDPLGLAGKNRDGVYEPDFEKLERLKLAEIKHSRLAMVAMLIFYFEAGQGKTPLGALGL,soluble
5,MAMDNQGWFSNETATFGDRLAGAREAAGLTQEEMARRLGVRLKTLQSWEDDLAEPRANRLQMMAGMLNVSLRWLLTGEGEGAEGPSEPAILTSEGREALAELARMRTQMLALAQEMGQLEKRMRALLRKEAE,not soluble
6,MAMGRTTQFTLDEVAKHADKDSCWLVIDGKVYAVEKFLNEHPGGEDVLLETAGRDATREFEDVGHSKSAREQLKEFYIGDVREPTAEELAAKRAVQASAAAERRDGDGVRANGLGKERLFAGGAFGAEPLSGGSSTWTLLKRLFVPVCIAVLVYLVREYSKQVQTGG,not soluble
7,MAMIGLVGKPNVGKSTMFNALTEKPAEIGNYPFTTIQPNKGIAYITSPCPCKELGVKCNPRNSKCIDGIRHIPVEVIDVAGLVPGAHEGRGMGNKFLDDLRQADAFILVVDASGKTDAEGNPTENYDPVEDVKFLLNEIDMWIYSILTKNWDKLARRAQQEKNIVKALKDQLSGLNIDEDDIKMAIRDMDESPIKWTEEDLLNLAKKLRKISKPMIIAANKADHPDAEKNIERLKKEFKDYIVIPTSAEIELALKRAEKAGIIKRKENDFEIIDESKVNEQMRRAFDYIKDFLKKYGGTGVQECINKAYFDLLDMIVVYPVEDENKFSDKQGNVLPDAFLVKKGSTARDLAYKVHTELGEKFIYAIDAKKKIRVGADYELKHNDIIKIVSAAK,soluble
8,MAMIHEMILDGKVVRYRVVEKPVKYVTLRVLEDGTILVVTPLEQIVREVLIKKKDWILSKISIVEEAKELSRKGFPLFGKFYSLEMGEKFEINREELRITFPGIEFLRNWIKREIKRKAREIAKDFGISPKRIYVKAMRTKWGSATWRKSITLNFSSAALPEELFHYLVIHELAHLIELNHSKRFWSLVASYHPDYKKKRRELKKWWFIVHSNETWRAILQWPEGLEHHHHHH,soluble
9,MAMNLRKNQAPLYIKVHEIDNTAIIVNDGGLPKGTVFSCGLVLEEDVPQGHKVALTDLNQGDEIVRYGEVIGFADETIKRGSWIREALVRMPAP,not soluble
10,MAMPTIRHVRAFIVRGGGADYHDQPGGHWIDDHISTPMARYPEYRQSRQSFGINVLGTLVVEIEASDGTVGFAVTTGGEIGAFIVEKHLARFLEGQLVTDIEKMWDQMYFSTLYYGRKGVVLNTISGVDLALWDLLAKVRKEPVYQLLGGPVRDELVFYATGARPDLAKEMGFIGGKLPLQHGPAEGDAGLRQNLDKLAEMRSRVGDDFWLMYDCWMSLDVPYATRLAQAAHEYGLKWIEECLPPDDYWGYAELRRNVPRGMMVSTGEHEATRWGFRMLLEMQCCDLIQPDVGWCGGITELIKISALADAHNVMVVPHGSSVYSYHFVVTRHNSPFAEFLMMAPKADEVVPMFTPLLLDEPVPVNGRMKVPDAPGFGVRLNPECALVRPYAR,soluble
11,MANEKQYPMTKEGKEKLEQELEYLKTVKRKEVVERIKIARGFGDLSENSEYDAAKDEQAFVESRIQMLENMIRNAVIIEEDKENPDVVSLGKSVTFIELPDGEEETYTIVGSAEADPFEGKISNDSPIAKSLLGRRVGDEVTVQTPGGEMLVKIVAVK,soluble
12,MANHVSLILPPLSLYIHIPWCVQKCPYCDFNSHTQKGTIPEAEYIQHLLADLSQDLVTYKTAIANRKIHSIFIGGGTPSLFSAEAIAYLLAEIKQRIAFAPKIEITLEANPGTAEAERFICYTEAGINRISMGIQSFEEEKLRKLGRIHDAHEAKQAVYFAKNALISPSRTVGLHSFNLDLMHGLPNQTLEQALADLNTAISLNPPHFSWYQLTIEPNTMFYYRQPTLPDDDELWAIFEQGHQLLTMAGYQQYETSAYAKQGFQCQHNLNYWRFGDYLAIGCGAHGKISYPSGEIYRFSKTKHPKGYMRGDYRDSQQSIQLDDRPFEFFMNRFRLLEPTPKQEFECYTGLDCERVRPTIDWALNKHYISETSTTWQVTQKGKLFLNELLAGFLTLEHHHHHH,not soluble
13,MANLEKKRVVVTGLGAITPIGNTLQDYWQGLMEGRNGIGPITRFDASDQACRFGGEVKDFDATQFLDRKEAKRMDRFCHFAVCASQQAINDAKLVINELNADEIGVLIGTGIGGLKVLEDQQTILLDKGPSRCSPFMIPMMIANMASGLTAINLGAKGPNNCTVTACAAGSNAIGDAFRLVQNGYAKAMICGGTEAAITPLSYAGFASARALSFRNDDPLHASRPFDKDRDGFVMGEGSGILILEELESALARGAKIYGEMVGYAMTCDAYHITAPVPDGRGATRAIAWALKDSGLKPEMVSYINAHGTSTPANDVTETRAIKQALGNHAYNIAVSSTKSMTGHLLGGSGGIEAVATVMAIAEDKVPPTINLENPDPECDLDYVPGQSRALIVDVALSNSFGFGGHNVTLAFKKYQ,soluble
14,MAPFSPASSDVLVIGGGPSGTALSAELAARGLDVQQLAPHPPRPFPATYGAWLGDLPTWARGCAEQVWTDVRAYTGPQPTSLGQPYALLDNAALLRTLRGLADWTWVEGAALHAERSGAGWTVYGAGGERWQTRLVVDASGHGALVSPVRFPGGAALQTAYGVVARFRRPPVTPGSMVWMDYRTPAPELKRGEATFLYAMHLGGDRYFVEETSLIARPAPTRAELRRRLLARLSAQGTPPHATESEEWVAFPMNAQAPAPGGVLAYGAAAGRVHPVSGFQVAGALSDAPGVATAIATALCQGKDAAAAGWAALWSPERRAAREVHLLGVGALLGLERAELPHFFGTFFGLPREQWARFLHPDTDAGTLARTMLRVFAQTGGRVRLPLARAALAQPAASGRALAAAAGLKILEHHHHHH,not soluble
